{"source": "paper PMC3932240", "about": "(Biochemistry, 2013)", "proteins": {"B1": {"name": "CpcS-III bilin lyase from Thermosynechococcus elongatus BP-1, C-terminally His-tagged (from pTER13-21) (enzyme, UniProt Q8DI91 1-182, looked up)", "chain": "MCIGMDIRDFFAQSAGRWFSQRTSHHLAFKQTESGKSQLTIELLSVDDPAVIALCQQYDMDPAWAVCGARVSWDGTMEWDNEKHEGSTVLVPIMDQGSRMEGKLLREMGYAEKAPVAGRFSMGSDGALTLITEYETIYSEERLWFASPNLRLRTSILKRFGGFSMASFCSEIRLGVTQPANS", "modifications": "selenomethionine-labeled in the sample that was crystallized"}}, "molecular_target": "the molecule itself", "experiment": "SEC"}
{"protein": "B1", "values": [{"measurement": "stoichiometry N", "value": 2}]}
